How the values were obtained:
[1] = biological target: FGFR2 on SNU-16 gastric cancer cell line with FGFR2 amplification (UniProt P21802); test: FACS on SNU-16 cells, % No. of cells with FITC+
[2] = test system: cells stably overexpressing FGFR2 (FGFR2IIIb); test: growth of cells stably overexpressing FGFR2 (FGFR2IIIb) (FIG. 16F left); assay type: cell-based
Text: (§1) FIG. 16A-16F provide schematic illustrations, blots and graphs related to the development of a NANOBIT® assay to measure FGFR2 dimerization. Such an assay is used to screen biparatopic screening for their ability to disrupt FGFR2 dimerization. […] The protein interactions bring the subunits into close proximity to form a functional enzyme that generates a bright, luminescent signal. (FIG. 16B). […] FIG. 16E presents a graph of the results of the NANOBIT® assay using NANOBIT® constructs with or without FGF10 ligand. […] As shown in the graph on the left side of FIG. 16F, certain of the antibodies A-F inhibited the growth of BaF3 cells stably overexpressing FGFR2 (FGFR2IIIb). Antibody D was used in the NANOBIT® assay (graph on the right of FIG. 16F). In the rightmost graph in FIG. 16F, the fold luminescence resulting from FGFR2 WT (wild type) in the assay is represented by the left bar in each set of three bars; the fold luminescence resulting from FGFR2+FGF10 ligand in the assay is represented by the middle bar in each set of three bars; and the fold luminescence resulting from +/−FGF10 ligand difference in the assay is represented by the right bar in each set of three bars shown in FIG. 16F.
Different expression constructs (e.g., up to eight) were made encoding LgBiT and SmBiT fused to the N and C termini of protein:protein pairs. […]

FGFR2IIIb = biological target: T1, FGFR2IIIb; test: row 'Kd (nM) (patent)', value quoted from the source patent; method: Radioimmunoassay-purified FGFR2IIIb
T1 construct: also called purified FGFR2IIIb
T1 chain: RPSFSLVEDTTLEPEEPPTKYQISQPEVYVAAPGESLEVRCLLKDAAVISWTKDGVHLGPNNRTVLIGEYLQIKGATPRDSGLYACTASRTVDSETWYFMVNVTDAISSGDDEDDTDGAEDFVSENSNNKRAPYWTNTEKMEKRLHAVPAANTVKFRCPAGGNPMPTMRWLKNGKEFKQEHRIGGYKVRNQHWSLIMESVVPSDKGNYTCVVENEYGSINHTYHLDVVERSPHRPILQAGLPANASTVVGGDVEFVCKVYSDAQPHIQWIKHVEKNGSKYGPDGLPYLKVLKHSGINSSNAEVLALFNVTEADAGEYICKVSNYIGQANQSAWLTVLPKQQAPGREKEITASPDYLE

[3] = biological target: FGFR2b alpha IIIb antigen (UniProt P21802); test: SPR (Biacore), antibody on chip, FGFR2b alpha IIIb antigen
[4] = biological target: FGFR2 on SNU-16 gastric cancer cell line with FGFR2 amplification (UniProt P21802); test: FACS on SNU-16 cells, % cells with FITC+ [cont.]
[5] = test system: BaF3 cells expressing wild-type FGFR2IIIb; test: ligand-induced (FGF10) growth of BaF3 cells expressing FGFR2IIIb (FIG. 8); assay type: cell-based
Description: FIG. 8 is a schematic (described at FIG. 7A) and a graph showing the growth of BaF3 cells expressing FGFR2IIIb when treated with FGF10. Anti-FGFR2 antibodies blocked ligand-dependent stimulation of BaF3 cells expressing wild-type FGFR2b. FGFR2b is an isoform of FGFR2 that is predominantly expressed in cholangiocarcinoma.
Antibodies A-F were tested to determine whether they could inhibit the ligand-induced growth of BaF3 cells expressing FGFR2IIIb. Antibodies C, D, and E, which bind FGFR2 Ig-2 and Ig-3, were effective in blocking ligand-induced growth of BaF3 cells expressing wild-type FGFR2IIIb (FIG. 8). The effects of antibodies A-F were then tested on BaF3 cells expressing FGFR2-PHDGH fusions. […] Antibody F inhibited the FGFR2-PHDGH activating fusion in BaF3 cells (FIG. 9).

[6] = biological target: T2, FGFR2 receptor dimerization (Homo sapiens, UniProt P21802); test: NANOBIT assay of FGFR2 dimerization; assay type: cell-based; conditions: increasing antibody concentrations, cells stably expressing FGFR2
T2 construct: expressed in transfected cells
T2 sequence (P21802 22-822 isoform P21802-3 limits assumed): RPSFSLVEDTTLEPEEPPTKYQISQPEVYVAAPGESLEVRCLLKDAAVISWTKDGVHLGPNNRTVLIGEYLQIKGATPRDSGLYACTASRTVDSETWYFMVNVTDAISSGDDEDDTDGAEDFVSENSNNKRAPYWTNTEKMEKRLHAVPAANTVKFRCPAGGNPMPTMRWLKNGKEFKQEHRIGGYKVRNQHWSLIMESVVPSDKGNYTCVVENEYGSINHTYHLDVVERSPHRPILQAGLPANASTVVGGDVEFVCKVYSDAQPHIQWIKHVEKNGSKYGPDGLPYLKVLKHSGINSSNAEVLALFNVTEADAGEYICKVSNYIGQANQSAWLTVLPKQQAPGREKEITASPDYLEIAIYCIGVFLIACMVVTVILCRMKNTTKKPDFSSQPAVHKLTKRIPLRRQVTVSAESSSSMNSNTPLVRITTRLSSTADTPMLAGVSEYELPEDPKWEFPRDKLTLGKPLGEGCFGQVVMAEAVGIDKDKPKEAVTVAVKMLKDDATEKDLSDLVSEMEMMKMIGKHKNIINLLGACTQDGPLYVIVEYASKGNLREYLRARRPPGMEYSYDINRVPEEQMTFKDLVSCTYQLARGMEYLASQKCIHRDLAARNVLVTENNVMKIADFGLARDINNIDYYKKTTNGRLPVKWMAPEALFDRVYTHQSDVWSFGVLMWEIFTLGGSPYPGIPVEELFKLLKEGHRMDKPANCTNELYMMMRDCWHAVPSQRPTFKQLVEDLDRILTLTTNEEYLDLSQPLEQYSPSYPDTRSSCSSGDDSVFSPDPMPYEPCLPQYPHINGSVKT
T2 sequence (P21802 22-822 isoform P21802-3 limits assumed): as above
Text: as §1
A NANOBIT® assay was developed to measure FGFR2 dimerization in cells, and in particular to screen for biparatopic antibodies that were able to disrupt FGFR2 dimerization. […]

[7] = biological target: FGFR2 on SNU-16 gastric cancer cell line with FGFR2 amplification (UniProt P21802); test: row 'Kd (nM) (FACS)'; FACS on SNU-16 cells

B1: 2B 1.3.12 (antibody, V domains shown)
VH: EVQLVESGGGLVQPGGSLRLSCAASGFPFTSTGISWVRQAPGKGLEWVGRTHLGDGSTNYADSVKGRFTISADTSKNTAYLQMNSLRAEDTAVYYCARTYGIYDTYDMYTEYVMDYWGQGTLVTVSS
VL: DIQMTQSPSSLSASVGDRVTITCRASQDVDTSLAWYKQKPGKAPKLLIYSASFLYSGVPSRFSGSGSGTDFTLTISSLQPEDFATYYCQQSTGHPQTFGQGTKVEIK
notes: the duobody scheme implies IgG1 with K409R or F405L; also called Antibody D; GE
EC50 (read off the curve) [1]: 0.3 mg/L | growth inhibition of cells stably overexpressing FGFR2 (FGFR2IIIb) [2]: most pronounced effect | Kd (FGFR2IIIb): 3 nM | Kd [3]: 0.99 nM | EC50 (read off the curve) [4]: 0.3 mg/L | blocking ligand-induced growth of BaF3 cells expressing wild-type FGFR2IIIb [5]: effective | blocking of FGF-induced dimerization of the FGFR2 receptor [6]: blocks | Kd [7]: 1.78 nM

Source: patent US20230295308A1, “ANTAGONISTIC BIPARATOPIC ANTIBODIES THAT SPECIFICALLY BIND FIBROBLAST GROWTH FACTOR RECEPTOR 2 AND METHODS OF USING SAME” (The Broad Institute, Inc., priority 2020, published 2023)
